Results taken from patent publication US20210317213A1 (AMBRX, published 2021).

Columns and labels:
[1] = target: T1, cyno CD3 (cyno (cynomolgus monkey), UniProt Q95LI5 22-198); assay: cell binding, activated cyno PBMC
T1 construct: whole, on cells; also called CD3 on Cynomolgus T-cells

[2] = target: Folate receptor-alpha (FOLR1) (human) (UniProt P15328); assay: summary table; FRα affinity over CD3 affinity
[3] = target: T2, human CD3 (human, UniProt P07766 23-207); assay: cell binding, activated human PBMC
T2 construct: whole, on cells; also called CD3 on human T-cells

[4] = target: Folate receptor-alpha (FOLR1) (human) (UniProt P15328); assay: summary table; cell binding through the folate moiety
[5] = target: T2, human CD3; assay: summary table; cell binding EC50, human PBMC
[6] = target: T1, cyno CD3; assay: cell binding, activated cyno PBMC; E. coli protein
[7] = target: T2, human CD3; assay: cell binding, activated human PBMC; E. coli protein
[8] = target: T2, human CD3; assay: cell binding, human T-cells; set-up: Bmax: unit not given here
[9] = target: T1, cyno CD3; assay: cell binding, cynomolgus T-cells

T1 sequence (Q95LI5 22-198): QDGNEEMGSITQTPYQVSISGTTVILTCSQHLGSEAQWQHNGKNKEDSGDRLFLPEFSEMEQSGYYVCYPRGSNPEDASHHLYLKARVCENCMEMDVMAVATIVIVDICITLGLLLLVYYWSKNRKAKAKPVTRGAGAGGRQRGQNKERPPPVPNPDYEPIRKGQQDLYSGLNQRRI
T2 sequence (P07766 23-207): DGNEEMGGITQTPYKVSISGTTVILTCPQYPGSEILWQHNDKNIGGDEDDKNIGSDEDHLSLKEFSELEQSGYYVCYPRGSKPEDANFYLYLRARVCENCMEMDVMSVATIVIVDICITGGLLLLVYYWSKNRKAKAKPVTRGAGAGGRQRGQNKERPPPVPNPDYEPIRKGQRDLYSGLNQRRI
Chain of Folate receptor-alpha (FOLR1) (human) (P15328 25-234): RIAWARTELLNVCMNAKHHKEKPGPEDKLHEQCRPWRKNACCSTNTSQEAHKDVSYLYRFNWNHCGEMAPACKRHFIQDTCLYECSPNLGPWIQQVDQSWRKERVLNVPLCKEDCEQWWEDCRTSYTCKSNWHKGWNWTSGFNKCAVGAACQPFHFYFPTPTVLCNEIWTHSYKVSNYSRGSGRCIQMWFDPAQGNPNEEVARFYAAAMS

B1: Fab1-HK129-20KPEG-Folate (Fab, V domains shown)
VH: EVQLVESGGGLVQPGGSLRLSCAASGFTFNTYAMNWVRQAPGKGLEWVARIRSKYNNYATYYADSVKDRFTISRDDSKNILYLQMNSLKTEDTAVYYCVRHGNFGNSYVSWFAYWGQGTLVTVSS
VL: QAVVTQEPSLTVSPGGTVTLTCRSSTGAVTTSNYANWVQQKPGQAPRGLIGGTNKRAPGTPARFSGSLLGGKAALTLSGAQPEDEAEYYCALWYSNLWVFGGGTKLTVLG
modifications: pAF at HK129 (Kabat) conjugated to a bifunctional linker carrying folate and a linear 20K PEG (oxime)
notes: From E. coli
In the case of B1, the EC50 [1] is reported as 11.8 nM, the “Fold reduction in binding (vs Fab1-HK129-Folate)” value [1] is reported as 8.4 fold and the Affinity ratio (FRα:CD3) [2] is reported as 26. For the same binder, the EC50 [3] was 12 nM, the “Fold reduction in binding (vs Fab1-HK129-Folate)” value [3] was 4.3 fold and the FRα binding affinity [4] was 310 nM. It also gave a CD3 binding affinity [5] of 12 nM.

B2: Fab1-HA114-Folate (Fab, V domains shown)
VH: EVQLVESGGGLVQPGGSLRLSCAASGFTFNTYAMNWVRQAPGKGLEWVARIRSKYNNYATYYADSVKDRFTISRDDSKNILYLQMNSLKTEDTAVYYCVRHGNFGNSYVSWFAYWGQGTLVTVSS
VL: QAVVTQEPSLTVSPGGTVTLTCRSSTGAVTTSNYANWVQQKPGQAPRGLIGGTNKRAPGTPARFSGSLLGGKAALTLSGAQPEDEAEYYCALWYSNLWVFGGGTKLTVLG
modifications: pAF at HA114 (Kabat) conjugated to folate (oxime)
notes: From E. coli; Fab-folate conjugate
With B2 the EC50 [6] was 1.37 nM and the EC50 [7] was 1.27 nM.

B3: Fab1-HK129-LL157-pAF (Fab, V domains shown)
VH: EVQLVESGGGLVQPGGSLRLSCAASGFTFNTYAMNWVRQAPGKGLEWVARIRSKYNNYATYYADSVKDRFTISRDDSKNILYLQMNSLKTEDTAVYYCVRHGNFGNSYVSWFAYWGQGTLVTVSS
VL: QAVVTQEPSLTVSPGGTVTLTCRSSTGAVTTSNYANWVQQKPGQAPRGLIGGTNKRAPGTPARFSGSLLGGKAALTLSGAQPEDEAEYYCALWYSNLWVFGGGTKLTVLG
modifications: pAF at LL157 (Kabat); pAF at HK129 (Kabat)
notes: From E. coli; double pAF variant, unconjugated; also called Fab1-HK129pAF-LL157pAF
Work on B3 yielded a Bmax [8] of 27900, a Kd [8] of 0.604 nM and a Bmax [9] of 23400. The Kd [9] was 0.955 nM.

B4: Fab1-HS115-Folate (Fab, V domains shown)
VH: EVQLVESGGGLVQPGGSLRLSCAASGFTFNTYAMNWVRQAPGKGLEWVARIRSKYNNYATYYADSVKDRFTISRDDSKNILYLQMNSLKTEDTAVYYCVRHGNFGNSYVSWFAYWGQGTLVTVSS
VL: QAVVTQEPSLTVSPGGTVTLTCRSSTGAVTTSNYANWVQQKPGQAPRGLIGGTNKRAPGTPARFSGSLLGGKAALTLSGAQPEDEAEYYCALWYSNLWVFGGGTKLTVLG
modifications: pAF at HS115 (Kabat) conjugated to folate (oxime)
notes: as for B2
B4 showed an EC50 [6] of 1.37 nM and an EC50 [7] of 1.41 nM.

B5: Fab1-HA114-pAF1 (Fab, V domains shown)
VH: EVQLVESGGGLVQPGGSLRLSCAASGFTFNTYAMNWVRQAPGKGLEWVARIRSKYNNYATYYADSVKDRFTISRDDSKNILYLQMNSLKTEDTAVYYCVRHGNFGNSYVSWFAYWGQGTLVTVSS
VL: QAVVTQEPSLTVSPGGTVTLTCRSSTGAVTTSNYANWVQQKPGQAPRGLIGGTNKRAPGTPARFSGSLLGGKAALTLSGAQPEDEAEYYCALWYSNLWVFGGGTKLTVLG
modifications: para-acetyl-phenylalanine (pAF) at HA114 (Kabat)
notes: From E. coli; also called Fab1 HA114pAF, unconjugated
With B5 the EC50 [6] was 1.33 nM and the EC50 [7] was 1.35 nM.

B6: Fab1-HS115-pAF1 (Fab, V domains shown)
VH: EVQLVESGGGLVQPGGSLRLSCAASGFTFNTYAMNWVRQAPGKGLEWVARIRSKYNNYATYYADSVKDRFTISRDDSKNILYLQMNSLKTEDTAVYYCVRHGNFGNSYVSWFAYWGQGTLVTVSS
VL: QAVVTQEPSLTVSPGGTVTLTCRSSTGAVTTSNYANWVQQKPGQAPRGLIGGTNKRAPGTPARFSGSLLGGKAALTLSGAQPEDEAEYYCALWYSNLWVFGGGTKLTVLG
modifications: para-acetyl-phenylalanine (pAF) at HS115 (Kabat)
notes: From E. coli; also called Fab1 HS115pAF, unconjugated
In the case of B6, the EC50 [6] is reported as 1.76 nM and the EC50 [7] is reported as 1.26 nM.
